The record followed here is the emibetuzumab library of Makowski et al. (2022).

The labels stand for the following.
B1: VH:VL chains; a variant is named by its letters at X, in order (parent)
chain 1: QVQLVQSGAEVKKPGASVKVSCKASGYTFTDYXMHWVRQAPGQGLEWMGXVNPNXXXTTYNQKFEGRVTMTTDTSTSTAYMELRSLRSDDTAVYYCARXNXLDXWGQGTTVTVSS
chain 2: DIQMTQSPSSLSASVGDRVTITCSVSSSVSSIYLHWYQQKPGKAPKLLIYSTSNLASGVPSRFSGSGSGTDFTLTISSLQPEDFATYYCQVYSGYPLTFGGGTKVEIK

The variants in the series derive from B1. Kind of series: yeast display scFab, FACS + sequencing. The essentials:
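Non-specific binding was called from deep sequencing of sorted yeast cells displaying a heavy-chain CDR mutant scFab library. Cells labelled with anti-Myc and biotinylated ovalbumin (260 μg/mL in PBSB, 3 h, room temperature) or soluble membrane proteins (130 μg/mL, 20 min on ice) were FACS-sorted, collecting the top 25% and bottom 10% of binders from two replicates. A sequence was positive when present in ≥3 of 4 pooled positive samples and absent from all negatives, and negative under the converse rule.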
Regarding FRRTDFVA, the non-specific binding call is reported as “binds”.
Consider YRTRGAVD, for which the non-specific binding call was “binds”.
Take STAESDGA: the non-specific binding call is on record as “no binding”.
As for FRTRDSSS, the non-specific binding call is “binds”.
With YRTRDDLY, the non-specific binding call is “no binding”.
For the variant FRTGDAVF, the non-specific binding call is reported as “no binding”.
For the variant FRTGDAVS, the non-specific binding call was “no binding”.
For the variant FRTKAAVY, the non-specific binding call is listed as “binds”.
For the variant YRTGGSSV, the non-specific binding call is “binds”.
On to VRTEDAWA, for which the non-specific binding call was “no binding”.
As to VRTEDAWV, the non-specific binding call was “no binding”.
In the case of VTAGDDVY, the non-specific binding call is given as “no binding”.
On to VTAGDDVA, for which the non-specific binding call is “no binding”.
For the variant DTAESDLD, the non-specific binding call was “no binding”.
Take YRTRSAGA: the non-specific binding call is listed as “binds”.
Next, YRTRSAGV: “binds”; YRTRSAGD: “binds”; YRTRDSVD: “binds”.
Next, YRTRDSVA: “no binding”.
In the case of STAESDLD, the non-specific binding call is listed as “no binding”.
For FRTRGSSD, the non-specific binding call is “binds”.
Turning to YRTRDAGY, the non-specific binding call is recorded as “no binding”.
On to YRTKGSGV, for which the non-specific binding call was “binds”.
On to YRTGAAAD, for which the non-specific binding call is “binds”.
Consider YRTKAAVD, for which the non-specific binding call is “binds”.
As for FRTGDAGA, the non-specific binding call is “no binding”.
As to FRTGDDAA, the non-specific binding call is “no binding”.
The value for FRTGDDAV was “no binding”.
Consider VRTGDSLD, for which the non-specific binding call is on record as “no binding”.
Next, YRTRSAAV: “binds”; YRTRSAAA: “binds”; YRTRSSVS: “binds”.
For the variant YRTRGALA, the non-specific binding call is “binds”.
Next, YRTRGALS: “binds”.
On to YRTGTAGF, for which the non-specific binding call was “binds”.
As to YRTKGAVY, the non-specific binding call is reported as “binds”.
The value for YTAGSALV was “no binding”; that for YRTAGSGD was “binds”; that for YRTAGSGV was “binds”.
As to ARTKGSGY, the non-specific binding call is “binds”.
Turning to VRTRSSLD, the non-specific binding call is listed as “binds”.
For YRRRSAGA, the non-specific binding call is “binds”.
The value for YRTRDDVY was “no binding”; that for YRTRDDVV was “no binding”; that for FRTGSAWF was “binds”.
With FRTGDDSF, the non-specific binding call is recorded as “no binding”.
Next, STAESSSF: “no binding”.
In the case of STAEDDWV, the non-specific binding call was “no binding”.
The value for FRTGDDGA was “no binding”; that for FRTGDSWD was “no binding”; that for VRTRASVD was “binds”.
For the variant VRTRGSSS, the non-specific binding call is reported as “binds”.
With VRTEDASF, the non-specific binding call was “no binding”.
With YRRRSSSS, the non-specific binding call is reported as “binds”.
Turning to YTARGVSF, the non-specific binding call is on record as “binds”.
As to VTAESSSF, the non-specific binding call was “no binding”.
For the variant STAEDFVV, the non-specific binding call is “no binding”.
As to FRTRSSLA, the non-specific binding call is reported as “binds”.
For VRTGAVGD, the non-specific binding call was “binds”.
In the case of VTAGDDGV, the non-specific binding call is listed as “no binding”.
VTAGDDGS: the non-specific binding call is listed as “no binding”.
For ATATADWA, the non-specific binding call is listed as “no binding”.
As for YRTRSSGA, the non-specific binding call is listed as “binds”.
On to YRTRGAGA, for which the non-specific binding call is on record as “binds”.
As to YRTRGAGD, the non-specific binding call was “binds”.
YRTRGAGV: the non-specific binding call is recorded as “binds”.
For the variant YRTRGSGY, the non-specific binding call was “binds”.
Regarding YRTRGSGF, the non-specific binding call is reported as “binds”.
As for VRTRGSGV, the non-specific binding call is recorded as “binds”.
Regarding YRTAGSSD, the non-specific binding call is on record as “binds”.
Take YRRRTAAV: the non-specific binding call is on record as “binds”.
For FRTGDAWV, the non-specific binding call was “no binding”.
Next, DTAGDAVV: “no binding”.
Turning to VRTRGYLA, the non-specific binding call is recorded as “binds”.
With VTAEDFGV, the non-specific binding call is recorded as “no binding”.
For YRTRSSAV, the non-specific binding call is “binds”.
Take YRTAGAGV: the non-specific binding call is listed as “binds”.
As to YRTAGAGD, the non-specific binding call is recorded as “binds”.
The value for YRTGASSD was “binds”; that for VRTGDSAY was “no binding”.
As to FRTRDSAA, the non-specific binding call is “binds”.
Regarding VRRRSSLA, the non-specific binding call was “binds”.
As for YRTGGSLD, the non-specific binding call is “binds”.
For FRTKDDVY chain 1 E46K, the non-specific binding call is listed as “binds”.
The value for FRTGDDLV was “no binding”; that for YRTADVGV was “binds”.
For the variant FRTGDSAS, the non-specific binding call was “no binding”.
For VRTEDSLV, the non-specific binding call was “no binding”.
On to VRTEDSLD, for which the non-specific binding call is on record as “no binding”.
In the case of YRTGAAGV, the non-specific binding call is recorded as “binds”.
Turning to YRRRGVVV, the non-specific binding call is reported as “binds”.
For VRTEDDLV, the non-specific binding call is listed as “no binding”.
As to VRTEDDVA, the non-specific binding call was “no binding”.
Consider VRTEDDVD, for which the non-specific binding call is reported as “no binding”.
As to VRTEDDVY, the non-specific binding call is “no binding”.
For VRTEDDVF, the non-specific binding call was “no binding”.
In the case of FRTKGAAD, the non-specific binding call is given as “binds”.
Next, FRTRDFLV: “binds”; YTAGSDVA: “no binding”.
Next, FRTKGSGD: “binds”; DTAGDAAV: “no binding”; YRRRGVWA: “binds”.
Turning to VRTADDGA, the non-specific binding call is listed as “no binding”.
Regarding YRRRGVGS, the non-specific binding call is listed as “binds”.
Regarding YRRRGVGV, the non-specific binding call is given as “binds”.
Consider YRRRGVGD, for which the non-specific binding call was “binds”.
Consider YRRRGVGY, for which the non-specific binding call is listed as “binds”.
On to DTAESSSF, for which the non-specific binding call was “no binding”.
As for YRTRGAWF, the non-specific binding call is reported as “binds”.
In the case of YRTRGAWA, the non-specific binding call is listed as “binds”.
Next, VRTEDFGV: “no binding”.
Next, FRTRDVGF: “binds”; YRTRDALV: “no binding”; ATAGSAAV: “no binding”.
For VTAGSDAV, the non-specific binding call is “no binding”.
As for FRTRGAAA, the non-specific binding call is “binds”.
As for YRTGDSSA, the non-specific binding call was “no binding”.
As for YTEAADGA, the non-specific binding call is “no binding”.
For the variant DRTTNAGD, the non-specific binding call is “no binding”.
As for ARRTDVAD, the non-specific binding call is recorded as “binds”.
